In test [1] the target is PD-L1 on A431 cells (UniProt Q9NZQ7). In words: flow cytometry on A431 cells, negative control. (In flow cytometry, cells or beads pass a laser one at a time.)
Test [2] deals with PD-L1 on RENCA HER2 cells (mouse) (UniProt Q9EP73). Put plainly: flow cytometry on RENCA HER2 cells, isotype control, 1 h.
In test [3] the target is PD-L1 on A431 cells (UniProt Q9NZQ7). Put plainly: flow cytometry, untreated control A431 cells, stained 40 min on ice.
The target is the same in test [4]. In words: flow cytometry, A431 cells treated 5 h with 0.125 µg/ml PEI-PEG-EGF/polyIC, stained 40 min on ice.
The target of test [5] is PD-L1 on RENCA HER2 cells (mouse) (UniProt Q9EP73). Put plainly: flow cytometry, untreated RENCA HER2 cells stained with PE anti-mouse PD-L1 10F.9G2, 1 h.
For test [6] the target is unchanged. In words: flow cytometry, RENCA HER2 cells treated 24 h with 1 microgram/ml polyIC/PPHA, stained with PE anti-mouse PD-L1 10F.9G2, 1 h.

UniProt Q9EP73, sequence (Q9EP73 19-290): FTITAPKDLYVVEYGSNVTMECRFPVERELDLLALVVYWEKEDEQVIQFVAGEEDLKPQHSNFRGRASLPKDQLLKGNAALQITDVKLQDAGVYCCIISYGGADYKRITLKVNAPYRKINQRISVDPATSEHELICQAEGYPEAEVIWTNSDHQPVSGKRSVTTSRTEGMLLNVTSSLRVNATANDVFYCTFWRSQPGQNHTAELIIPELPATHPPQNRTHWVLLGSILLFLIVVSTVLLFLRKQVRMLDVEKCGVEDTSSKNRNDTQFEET
UniProt Q9NZQ7, sequence (Q9NZQ7 19-290 limits assumed): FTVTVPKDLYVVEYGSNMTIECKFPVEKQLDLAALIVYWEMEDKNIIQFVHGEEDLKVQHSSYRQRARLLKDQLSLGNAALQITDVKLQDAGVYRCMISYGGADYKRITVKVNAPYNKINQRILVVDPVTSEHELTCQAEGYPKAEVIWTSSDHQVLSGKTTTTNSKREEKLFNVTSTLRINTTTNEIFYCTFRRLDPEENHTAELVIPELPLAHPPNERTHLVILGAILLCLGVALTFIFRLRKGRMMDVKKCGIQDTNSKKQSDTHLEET

In the test with PD-L1 on A431 cells [1], “Isotype control (Example 1, A431 staining) (antibody)” registered an MFI of 13.

Take “Isotype control (Example 6, RENCA HER2 staining) (antibody)”: the median PE-A (Calculated raw values of medians using x-axis channel(s): PE-A) in test [2] was 3.19.

As for “PD-L1-PE labelled antibody (Biolegend, cat #393607)”, the MFI in the test with PD-L1 on A431 cells [3] stood at 431; with PD-L1 on A431 cells [4] it was 751.

With “phycoerythrin (PE)-conjugated anti-mouse PD-L1 antibody CD274 (PD-L1, B7-H1) [10F.9G2] Tonbo cat #50-1243-U025”, the figures for the median PE-A (Calculated raw values of medians using x-axis channel(s): PE-A) in test [5] and in test [6] were 163 and 322, respectively.

The values above are taken from patent publication US20220175814A1.
